± gives the standard deviation of the averaged measurements.

The nature of the data set: total protein half-life in vivo (active degradation + dilution); higher = more stable protein.
Setting [1] is: E. coli NCM3722 delta-clpP delta-lon delta-hslV, growth: N-lim chemostat, doubling time 6 h.
[2] abbreviates: E. coli NCM3722 delta-clpP, growth: N-lim chemostat, doubling time 6 h.
Where [3] appears, read: E. coli NCM3722 delta-hslV, growth: N-lim chemostat, doubling time 6 h.
[4] abbreviates: E. coli NCM3722 delta-lon, growth: N-lim chemostat, doubling time 6 h.
The mark [5] stands for this setting: E. coli NCM3722 delta-smpB, growth: N-lim chemostat, doubling time 6 h.
Setting [6] is: wild type E. coli NCM3722, growth: C-lim chemostat, doubling time 3 h.
The mark [7] stands for this setting: wild type E. coli NCM3722, growth: C-lim chemostat, doubling time 6 h.
[8] abbreviates: wild type E. coli NCM3722, growth: C-lim chemostat, doubling time 12 h.
[9] abbreviates: wild type E. coli NCM3722, growth: N-lim chemostat, doubling time 6 h.
The mark [10] stands for this setting: wild type E. coli NCM3722, growth: N-lim chemostat, doubling time 12 h.
Where [11] appears, read: wild type E. coli NCM3722, growth: P-lim chemostat, doubling time 6 h.
[12] abbreviates: wild type E. coli NCM3722, growth: P-lim chemostat, doubling time 12 h.

“MIKWPWKVQESAHQTALPWQEALSIPLLTCLTEQEQSKLVTLAERFLQQKRLVPLQGFELDSLRSCRIALLFCLPVLELGLEWLDGFHEVLIYPAPFVVDDEWEDDIGLVHNQRIVQSGQSWQQGPIVLNWLDIQDSFDASGFNLIIHEVAHKLDTRNGDRASGVPFIPLREVAGWEHDLHAAMNNIQEEIELVGENAASIDAYAASDPAECFAVLSEYFFSAPELFAPRFPSLWQRFCQFYQQDPLQRLHHANDTDSFSATNVH”: the “total protein half-life in vivo” value reads like this: under setting [1], 4.48 ± 0.42 h; under setting [2], 3.08 ± 0.31 h; under setting [3], 1.36 ± 0.03 h; under setting [4], 1.79 ± 0.075 h; under setting [5], 1.51 ± 0.037 h; under setting [6], 1.16 ± 0.016 h. The “total protein half-life in vivo” value under setting [7] was found to be 1.87 ± 0.28 h; the “total protein half-life in vivo” value under setting [8] came out at 2.19 ± 0.13 h; the “total protein half-life in vivo” value under setting [9] turned out to be 1.53 h; the “total protein half-life in vivo” value under setting [10] is 2.44 ± 0.53 h; the “total protein half-life in vivo” value under setting [11] was determined as 1.76 ± 0.39 h; the “total protein half-life in vivo” value under setting [12] is 3.29 ± 0.75 h.

Regarding “MTEHTSSYYAASANKYAPFDTLNESITCDVCVVGGGYTGLSSALHLAEAGFDVVVLEASRIGFGASGRNGGQLVNSYSRDIDVIEKSYGMDTARMLGSMMFEGGEIIRERIKRYQIDCDYRPGGLFVAMNDKQLATLEEQKENWERYGNKQLELLDANAIRREVASDRYTGALLDHSGGHIHPLNLAIGEADAIRLNGGRVYELSAVTQIQHTTPAVVRTAKGQVTAKYVIVAGNAYLGDKVEPELAKRSMPCGTQVITTERLSEDLARSLIPKNYCVEDCNYLLDYYRLTADNRLLYGGGVVYGARDPDDVERLVVPKLLKTFPQLKGVKIDYRWTGNFLLTLSRMPQFGRLDTNIYYMQGYSGHGVTCTHLAGRLIAELLRGDAERFDAFANLPHYPFPGGRTLRVPFTAMGAAYYSLRDRLGV”, the “total protein half-life in vivo” value was 6.23 h under setting [2]; 5.96 ± 0.34 h under setting [3]; 3.84 ± 1.7 h under setting [4]; 0.265 h under setting [6]; 6.7 h under setting [7]; 4.55 h under setting [8]. In addition, the “total protein half-life in vivo” value under setting [9] was 1.81 h and the “total protein half-life in vivo” value under setting [10] stood at 6.25 ± 7.7 h.

“MRVFKTKLIRLQLTAEELDALTADFISYKRDGVLPDIFGRDALYDDSFTWPLIKFERVAHIHLANENNPFPPQLRQFSRTNDEAHLVYCQGAFDEQAWLLIAILKPEPHKLARDNNQMHKIGKMAEAFRMRF”: the “total protein half-life in vivo” value under setting [1] came to 7.33 h, the “total protein half-life in vivo” value under setting [11] is above 8 h and the “total protein half-life in vivo” value under setting [12] stood at 12.4 ± 1 h.

As to “MNIENLKTKAEADISEYITKKIIELKKKTGKEVTSIQFTAREKMTGLESYDVKINLI”, the “total protein half-life in vivo” value runs as follows: under setting [1], 6.69 ± 0.78 h; under setting [2], 6.7 ± 1.3 h; under setting [3], 5.74 ± 0.34 h; under setting [4], 6.46 ± 0.88 h; under setting [5], 5.57 ± 0.3 h; under setting [6], 3.24 ± 0.47 h. The “total protein half-life in vivo” value was determined as 5.85 ± 0.45 h under setting [7]; 10.6 ± 1.6 h under setting [8]; 5.71 ± 0.32 h under setting [9]; 13.6 ± 3.4 h under setting [10]; 5.4 ± 0.96 h under setting [11].

With “MSKVKSITRESWILSTFPEWGSWLNEEIEQEQVAPGTFAMWWLGCTGIWLKSEGGTNVCVDFWCGTGKQSHGNPLMKQGHQMQRMAGVKKLQPNLRTTPFVLDPFAIRQIDAVLATHDHNDHIDVNVAAAVMQNCADDVPFIGPKTCVDLWIGWGVPKERCIVVKPGDVVKVKDIEIHALDAFDRTALITLPADQKAAGVLPDGMDDRAVNYLFKTPGGSLYHSGDSHYSNYYAKHGNEHQIDVALGSYGENPRGITDKMTSADMLRMGEALNAKVVIPFHHDIWSNFQADPQEIRVLWEMKKDRLKYGFKPFIWQVGGKFTWPLDKDNFEYHYPRGFDDCFTIEPDLPFKSFL”, the “total protein half-life in vivo” value runs as follows: under setting [1], 5.04 ± 0.82 h; under setting [6], 3.56 h; under setting [8], 11.2 h; under setting [11], 3.67 ± 0.66 h; under setting [12], 9.39 h.

For the sequence “MQLNITGNNVEITEALREFVTAKFAKLEQYFDRINQVYVVLKVEKVTHTSDATLHVNGGEIHASAEGQDMYAAIDGLIDKLARQLTKHKDKLKQH [P0AFX0]”, the “total protein half-life in vivo” value was determined as 4.19 ± 0.41 h under setting [1]; 3.97 ± 0.51 h under setting [2]; 3.49 ± 0.22 h under setting [3]; 4.08 ± 0.13 h under setting [4]; 3.67 ± 0.043 h under setting [5]; 2.51 ± 0.14 h under setting [6]. The “total protein half-life in vivo” value under setting [7] was 4.75 ± 0.17 h; the “total protein half-life in vivo” value under setting [8] was found to be 8.14 ± 0.53 h; the “total protein half-life in vivo” value under setting [9] turned out to be 3.39 ± 0.5 h; the “total protein half-life in vivo” value under setting [10] is 7.37 ± 0.34 h; the “total protein half-life in vivo” value under setting [11] worked out at 4.21 ± 0.12 h; the “total protein half-life in vivo” value under setting [12] was determined as 7.16 ± 0.65 h.

For the sequence “MLIGYVRVSTNDQNTDLQRNALNCAGCELIFEDKISGTKSERPGLKKLLRTLSAGDTLVVWKLDRLGRSMRHLVVLVEELRERGINFRSLTDSIDTSTPMGRFFFHVMGALAEMERELIVERTKAGLETARAQGRIGGRRPKLTPEQWAQAGRLIAAGTPRQKVAIIYDVGVSTLYKRFPAGDK”, the “total protein half-life in vivo” value under setting [2] worked out at 6.3 h; the “total protein half-life in vivo” value under setting [8] stood at 5.3 h; the “total protein half-life in vivo” value under setting [9] worked out at 6.47 h; the “total protein half-life in vivo” value under setting [11] amounted to 6.11 h; the “total protein half-life in vivo” value under setting [12] turned out to be 12.2 ± 1.1 h.

Consider “MTLETAFMLPVQDAQHSFRRLLKAMSEPGVIVALHQLKRGWQPLNIATTSVLLTLADNDTPVWLSTPLNNDIVNQSLRFHTNAPLVSQPEQATFAVTDEAISSEQLNALSTGTAVAPEAGATLILQVASLSGGRMLRLTGAGIAEERMIAPQLPECILHELTERPHPFPLGIDLILTCGERLLAIPRTTHVEVC”, for which the “total protein half-life in vivo” value reads like this: under setting [11], 1.74 ± 0.51 h; under setting [12], 3.12 ± 1.3 h.
